Source: patent US20210063414A1, “METHODS FOR PREVENTING AND/OR TREATING BONE LOSS CONDITIONS BY MODULATING IRISIN” (Dana-Farber Cancer Institute, Inc., priority 2018, published 2021)

Biological target: T1, MLO-Y4 cell surface proteins (Mus musculus, UniProt P59242)
T1 construct: endogenous in cells; host or cells: MLO-Y4
T1 sequence (P59242 1-1191): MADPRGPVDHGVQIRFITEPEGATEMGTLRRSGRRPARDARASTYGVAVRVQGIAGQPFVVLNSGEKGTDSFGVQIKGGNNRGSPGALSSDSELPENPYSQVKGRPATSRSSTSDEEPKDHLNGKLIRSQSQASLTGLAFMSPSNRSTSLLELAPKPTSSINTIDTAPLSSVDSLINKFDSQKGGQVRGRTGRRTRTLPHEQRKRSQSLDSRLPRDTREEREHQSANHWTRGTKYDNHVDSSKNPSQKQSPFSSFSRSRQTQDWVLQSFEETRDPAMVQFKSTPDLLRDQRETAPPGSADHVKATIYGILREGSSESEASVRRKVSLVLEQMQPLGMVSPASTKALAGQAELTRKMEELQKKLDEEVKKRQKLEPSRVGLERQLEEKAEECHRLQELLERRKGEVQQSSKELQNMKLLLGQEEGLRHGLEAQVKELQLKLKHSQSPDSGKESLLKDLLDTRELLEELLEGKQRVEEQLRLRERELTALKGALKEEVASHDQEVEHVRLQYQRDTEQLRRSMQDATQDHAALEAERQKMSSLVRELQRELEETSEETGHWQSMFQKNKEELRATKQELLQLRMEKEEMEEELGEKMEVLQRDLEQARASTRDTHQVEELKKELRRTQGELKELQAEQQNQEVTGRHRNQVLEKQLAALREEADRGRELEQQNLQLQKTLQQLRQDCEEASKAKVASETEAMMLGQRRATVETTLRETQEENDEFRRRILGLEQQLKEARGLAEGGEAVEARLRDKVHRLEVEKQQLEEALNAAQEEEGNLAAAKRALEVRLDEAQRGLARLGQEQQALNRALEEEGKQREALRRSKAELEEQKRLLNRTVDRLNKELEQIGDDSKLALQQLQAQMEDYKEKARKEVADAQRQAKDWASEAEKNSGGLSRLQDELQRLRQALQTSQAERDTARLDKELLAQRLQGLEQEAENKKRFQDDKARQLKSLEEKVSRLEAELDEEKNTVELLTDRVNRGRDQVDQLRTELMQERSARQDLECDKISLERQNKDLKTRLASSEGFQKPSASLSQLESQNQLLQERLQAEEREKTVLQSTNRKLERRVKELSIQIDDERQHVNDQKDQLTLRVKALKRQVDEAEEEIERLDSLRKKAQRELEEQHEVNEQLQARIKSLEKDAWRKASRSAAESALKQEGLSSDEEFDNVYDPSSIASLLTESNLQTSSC
Assay: Crosslinking/co-immunoprecipitation/mass spectrometry (TMT quantitative proteomics) to identify irisin receptors
Assay type: binding
Settings: co-precipitated protein Cgn (CING_MOUSE)
How it was run: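 Relative protein abundance came from 6-plex TMT MS3 quantitation on an Orbitrap Fusion Lumos, after in-gel trypsin digestion of Coomassie-stained SDS-PAGE lanes. Input was a Ni-NTA pulldown (250 mM imidazole elution) of lysates from murine MLO-Y4 cells. These cells were treated on ice with His-tagged irisin or adipsin (10 nM, 20 min) in serum-free medium, then crosslinked with 1.5 mM DTSSP for 30 min.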

Question: Which TMT signal-to-noise ratio does the source give for adipsin here?
Answer: Its TMT signal-to-noise ratio is 200.289.
